11 molecules from patent US20260355338 (published 2026) can be followed below.

Substitutions are numbered along the chain they refer to.

The target of one assay is T1, human EpCAM-mFc (human).
T1 chain: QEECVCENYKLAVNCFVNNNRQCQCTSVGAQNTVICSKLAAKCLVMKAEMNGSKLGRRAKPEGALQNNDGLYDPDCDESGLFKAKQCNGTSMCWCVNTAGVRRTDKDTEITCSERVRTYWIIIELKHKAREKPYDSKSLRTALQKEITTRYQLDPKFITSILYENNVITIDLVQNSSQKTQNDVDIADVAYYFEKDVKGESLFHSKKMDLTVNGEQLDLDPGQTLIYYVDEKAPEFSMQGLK
Put plainly: ELISA. On the technique in general: ELISA stands for enzyme-linked immunosorbent assay.

The target in assay [1] is T2, EpCAM on HSC2 cells (human, UniProt P16422).
T2 chain: T1 chain
Put plainly: FACS, HSC2 cells, apparent, high end of range. In general terms: In flow cytometry, cells or beads pass a laser one at a time.

Assay [2] deals with T2, EpCAM on HSC2 cells. Put plainly: FACS, HSC2 cells, apparent, low end of range.

B1: EP11-3014 (1361-H) (antibody)
chain 1: QVQLVQSGAEVKKPGASVKVSCKASGYTFTNYHIHWVRQAPGQRLEYIGWIYPGNVYIQYNEKFKGRATLTADKSASTAYMELSSLRSEDTAVYYCARDGPWFAYWGQGTLVTVSS
chain 2: QGQSGQGFICPTLYDRPHCMHTGGGSSGGAVGLLAPPGGLSGRSDNIGGSDIVLTQTPLSLSVTPGQPASISCRSSRSLLHSDGFTYLYWFLQKPGQSPQLLIYQTSNLASGVPDRFSSSGSGTDFTLKISRVEAEDVGVYYCAQNLELPNTFGQGTKLEIK
B1 had a Kd with human EpCAM-mFc of 30.5 nM.

B2: EP107-3014 (1361-H) (antibody)
chain 1: B1 chain 1
chain 2: QGQSGQGSKPCSYMHPYCFYNSGGGSSGGAVGLLAPPGGLSGRSDNIGGSDIVLTQTPLSLSVTPGQPASISCRSSRSLLHSDGFTYLYWFLQKPGQSPQLLIYQTSNLASGVPDRFSSSGSGTDFTLKISRVEAEDVGVYYCAQNLELPNTFGQGTKLEIK
In the assay with human EpCAM-mFc, B2 came in with a Kd of 147 nM.

B3: EP01-3014 (1361-H) (antibody)
chain 1: B1 chain 1
chain 2: QGQSGQGPLMTCSDYYTCKNNLGGGSSGGAVGLLAPPGGLSGRSDNIGGSDIVLTQTPLSLSVTPGQPASISCRSSRSLLHSDGFTYLYWFLQKPGQSPQLLIYQTSNLASGVPDRFSSSGSGTDFTLKISRVEAEDVGVYYCAQNLELPNTFGQGTKLEIK
For the molecule B3, the Kd in the assay with human EpCAM-mFc amounted to 18.2 nM.

B4: EP105-3014 (1361-H) (antibody)
chain 1: B1 chain 1
chain 2: QGQSGQGDCTGYSPSVLPACRVGGGSSGGAVGLLAPPGGLSGRSDNIGGSDIVLTQTPLSLSVTPGQPASISCRSSRSLLHSDGFTYLYWFLQKPGQSPQLLIYQTSNLASGVPDRFSSSGSGTDFTLKISRVEAEDVGVYYCAQNLELPNTFGQGTKLEIK
B4 gave a Kd with human EpCAM-mFc of 201 nM.

B5: EP02-3014 (1565-Y) (antibody)
chain 1: B1 chain 1 with H33Y, P101Y
chain 2: QGQSGQGLSCTHSRYDMHCPHMGGGSSGGAVGLLAPPGGLSGRSDNIGGSDIVLTQTPLSLSVTPGQPASISCRSSRSLLHSDGFTYLYWFLQKPGQSPQLLIYQTSNLASGVPDRFSSSGSGTDFTLKISRVEAEDVGVYYCAQNLELPNTFGQGTKLEIK
For the molecule B5, the Kd with human EpCAM-mFc amounted to 34.5 nM.

B6: EP103-3014 (1565-Y) (antibody)
chain 1: B1 chain 1 with H33Y, P101Y
chain 2: B5 chain 2 with L8M, T11V, H12V, S13D, Y15F, M17R, H18Q, M22L
B6 had a Kd in the assay with human EpCAM-mFc of 140 nM.

B7: EP108-3014 (1361-H) (antibody)
chain 1: B1 chain 1
chain 2: B2 chain 2 with S8L, K9T, P10R, S12T, Y13I, M14A, F19Y, S22Y
For the molecule B7, the Kd in the assay with human EpCAM-mFc stood at 58 nM.

B8: EP04-3014 (1361-H) (antibody)
chain 1: B1 chain 1
chain 2: QGQSGQGWCPRLFDRPSMGCPTGGGSSGGAVGLLAPPGGLSGRSDNIGGSDIVLTQTPLSLSVTPGQPASISCRSSRSLLHSDGFTYLYWFLQKPGQSPQLLIYQTSNLASGVPDRFSSSGSGTDFTLKISRVEAEDVGVYYCAQNLELPNTFGQGTKLEIK
Take B8: in the assay with human EpCAM-mFc, the Kd came to 1.9 nM.

B9: EP07-3014 (1361-H) (antibody)
chain 1: B1 chain 1
chain 2: QGQSGQGHSGCPRLFDRCSAPAGGGSSGGAVGLLAPPGGLSGRSDNIGGSDIVLTQTPLSLSVTPGQPASISCRSSRSLLHSDGFTYLYWFLQKPGQSPQLLIYQTSNLASGVPDRFSSSGSGTDFTLKISRVEAEDVGVYYCAQNLELPNTFGQGTKLEIK
Molecule B9 displayed a Kd in the assay with human EpCAM-mFc of 1.5 nM.

B10: EP07-3014 (1565-Y) (antibody)
chain 1: B1 chain 1 with H33Y, P101Y
chain 2: B9 chain 2
Regarding B10, in the assay with human EpCAM-mFc, the Kd came to 37.6 nM.

B11: muEpCAM23 (antibody, V domains shown)
VH: EVKLEESGPALVKPGASVRISCKASGYTFTNYYIHWVKQRPGQGLDYIGWIYPGNVYIQYNEKFKGKATLTADKSSSTAFMQLSSLTSEDSAVYFCARDGPWFAYWGQGTLVTVSS
VL: DIVLTQTPFSNPVTLGTSASISCRSSKSLLHSDGFTYLYWFLQKPGQSPHLLIYQTSNLASGVPDRFSSSGSGTDFTLRISRVEAEDVGVYYCAQNLELPNTFGGGTKLEIK
Take B11: the Kd with EpCAM on HSC2 cells [1] amounted to 0.79 nM; with EpCAM on HSC2 cells [2], 0.38 nM.
